This note sets out measurements from patent US20230257435A1, “Wound Healing Composition and Uses Thereof” (AGENCY FOR SCIENCE, TECHNOLOGY AND RESEARCH, priority 2020, published 2023).

For one assay, the system named is HaCaT cells. The assay can be described thus: Traction force microscopy and PIV of collective migration. In kind it is cell-based, human. The procedure:
Substrate preparation—Two-part silicone elastomer, DOWSIL CY52-276 (Dow Inc.), is first mixed thoroughly in a 1:1 weight ratio. The mixture is then poured into a 35 mm glass-bottom culture dish (iwaki 3930-035, Asahi Techno Glass Corporation, Japan) placed on a level surface, to a thickness of ˜500 μm. After pre-curing overnight, the silicone coated culture dish is further baked for 2 hours at 80° C. to fully cure. To maximize subsequent microsphere attachment, the silicone film is pre-treated with (3-aminopropyl) triethoxysilane (A3648, Sigma-Aldrich). To silanize, a 1 ml solution containing 96% v/v, 2% v/v APTES and 1% v/v acetic acid (A6283, Sigma Aldrich) is added to the glass-bottom culture dish, covering the whole silicone film, and left for 10 minutes to react. The silicone film is then twice rinsed with 96% v/v ethanol and followed by a quick dip in Milli-Q water to remove all the solution: removing solution from the film this way is preferred over blow-drying with nitrogen gas because the latter may introduce dust to the surface which subsequently affects the uniformity of attached microsphere distribution. Following this, the culture-dish is baked at 80° C. for another 2 hours to promote siloxane bond formation. For the physisorption of fluorescent latex microspheres on to the silicone film, 6 μl of 100 nm orange fluorescent (540/560) carboxylate-modified microspheres (F8800, ThermoFisher Scientific) is first diluted in 10 ml of Milli-Q water and sonicated for 10 minutes. The diluted microspheres are then passed through a 0.22 μm filter directly into a 15 ml falcon tube containing 500 μl of 500 mM MES buffer, pH 6.0 (M3671, Sigma Aldrich). The microspheres are then sonicated again for 10 minutes before being added to cover the APTES silanized silicone film within the culture dish previously prepared. The solution was left for 5 minutes to allow the microspheres to attach. […] The stiffness of silicone substrates used for TFM were determined by atomic force microscopy as per previously established protocols as described in the section below. […]

Assay [1] deals with phosphorylated myosin light chain (pMLC). Description: Actomyosin cables / pMLC activation after wound scratch. In kind it is cell-based, human. How it is done:
Indicated cells post-manipulation were washed twice with cold Phosphate buffered saline (PBS) and lysed with cold 1% NP-40 lysis buffer supplemented with 1× protease inhibitor cocktail (Roche Applied Biosciences) for 15 mins at 4° C. The cell lysate was centrifuged at 13,000 rpm for 15 min. This was followed by protein estimation using Bradford reagent. Subsequently, […] of total protein was mixed with an equal volume of 2× Laemmli sample buffer and heated at 95° C. for 5 mins. This was followed by resolution with SDS-PAGE gel. The resolved proteins were transferred onto nitrocellulose membrane and blocked in 5% skimmed milk reconstituted in 1×PBS containing 0.1% Tween-20, and probed overnight with the respective primary antibody. The membrane was then washed with 1×PBS supplemented with 0.1% Tween-20: three times at 15 min intervals. This was followed by 1 h incubation in conjugated horseradish peroxidase HRP secondary antibody (Santa Cruz Biotechnology). Post-incubation, the blot was again washed three times as above and then overlaid with enhanced chemiluminescence (ECL) substrate (Pierce/Bio-Rad) and visualized on X-ray film by image processor or digitally by Chemidoc analyzer (Bio-Rad). The density of the various bands was quantified using the Image-J software.
Cells were cultured on eight-well chamber slides or coverslips over-night. Cells were then washed twice with PBS and fixed for 15 min with 4% paraformaldehyde. Subsequently, the cells were permeabilized for 15 min with 0.1% Triton X in Phosphate buffered saline containing 1 mM Ca^+2 and 1 mM Mg^+2 (PBSCM) at room temperature. The permeabilized cells were incubated with indicated antibodies in fluorescent dilution buffer (FDB) for 1-2 h at RT or overnight at 4° C., followed by 5 washes with PBSCM and incubation with secondary antibody; Alexa Fluor (Thermo Fisher Scientific) for 1 h at RT. Slides were again washed five times with PBSCM and mounted with Vectashield medium containing DAPI. The stained cells were then imaged by a Zeiss confocal microscope. The images were processed and analyzed by Zen blue software. Intensity measurements were acquired using tool selection parameter in image analysis within the Zen blue software.
A confluent monolayer of control and Agrin depleted cells in a 6-well plate was subjected to a unidirectional scratch using a 20 μl pipette tip. This was followed by washing with 1×PBS at room temperature and incubation in complete culture media at 37° C. and 5% CO2 with or without sAgrin used as indicated. Phase contrast images of the wound area were taken periodically at the indicated time-points. For some wound-healing migration assays, keratinocytes were cultured on either soft or stiff substrates within a stencil barrier (Nalge Nunc., Inc) for 18 h. Upon removal of the barrier, the cells were allowed to migrate and imaged using an Axiovert 200 inverted microscope at indicated time-points.

Where [2] appears, read: Agrin depleted cells supplemented with sAgrin.

B1: sAgrin: C-terminus recombinant Agrin fragment containing 8 amino acid 'Z8' insert and LG3 domain (SEQ ID NO: 7), His-tagged, expressed in E. coli (protein)
chain: DTLAFDGRTFVEYLNAVTESELANEIPVEKALQSNHFELSLRTEATQGLVLWSGKATERADYVALAIVDGHLQLSYNLGSQPVVLRSTVPVNTNRWLRVVAHREQREGSLQVGNEAPVTGSSPLGATQLDTDGALWLGGLPELPVGPALPKAYGTGFVGCLRDVVVGRHPLHLLEDAVTKPELRPCPTP
modifications: His tag
With B1, the “traction force at migrating leading edge of MMP12 depleted keratinocytes” value in the assay on HaCaT cells (10 μg/ml sAgrin 18-24 h) was “failed to induce sufficient traction force”. In the assay with HaCaT cells (setting [2]), the “collective traction stress at the leading front” value is “significantly enhanced”; the “coordinated velocity fields and fluidic collective migration (PIV)” value is given as “significantly enhanced”. Besides, the “pMLC recruitment to wound edges” value in assay [1] (10 μg/ml sAgrin 18 h) was “strong recruitment of pMLC to wound edges forming stable actomyosin cables”. Further, in assay [1] (10 μg/ml sAgrin 18 h, within 4 h post-wounding), the “actomyosin cables in Agrin deprived cells” value is “restored”. Also, the “actomyosin cable network in MMP12 suppressed cells” value in assay [1] (MMP12 siRNA, 10 μg/ml sAgrin 18 h) is recorded as “did not restore actomyosin cable network”. Also, the “pMLC levels in MMP12 depleted keratinocytes” value in assay [1] (within 2 h post-wounding) was “unable to rescue the severely diminished pMLC levels”. In assay [1] (within 2 h post-wounding, sAgrin pre-treatment), the “pMLC activation in Agrin depleted cells” value is “restored”.
